# Measurements as given in US20050159590A1.
# Target: IL-1 receptor (type I) on T24 cells (UniProt P14778)
# Assay: cell-based or functional assay
# Chain of UniProt P14778 (P14778 18-569 limits assumed): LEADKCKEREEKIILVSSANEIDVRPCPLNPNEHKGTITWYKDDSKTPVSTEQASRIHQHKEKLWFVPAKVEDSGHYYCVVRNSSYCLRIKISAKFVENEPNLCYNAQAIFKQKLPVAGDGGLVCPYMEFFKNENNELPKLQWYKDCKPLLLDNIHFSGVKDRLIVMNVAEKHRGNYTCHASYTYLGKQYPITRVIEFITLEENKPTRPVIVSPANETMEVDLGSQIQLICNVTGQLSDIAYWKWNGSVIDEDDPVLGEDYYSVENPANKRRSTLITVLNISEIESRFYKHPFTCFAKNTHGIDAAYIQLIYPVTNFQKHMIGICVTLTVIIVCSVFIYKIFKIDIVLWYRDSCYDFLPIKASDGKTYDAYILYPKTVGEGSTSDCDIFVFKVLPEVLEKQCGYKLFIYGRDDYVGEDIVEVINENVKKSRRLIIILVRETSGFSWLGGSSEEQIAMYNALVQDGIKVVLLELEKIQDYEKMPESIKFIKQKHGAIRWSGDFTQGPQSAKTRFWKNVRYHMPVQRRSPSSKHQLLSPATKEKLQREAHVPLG
"inhibition of IL-1β-induced secretion of IL-8 from T24 cells, at 200 µg/ml [%]","inhibition of IL-1β-induced secretion of IL-8 from T24 cells, at 600 µg/ml [%]","inhibition of IL-1β-induced secretion of IL-8 from T24 cells, at 1800 µg/ml [%]","inhibition of IL-1β-induced secretion of IL-8 from T24 cells, at 8000 µg/ml [%]","inhibition of IL-1β-induced secretion of IL-8 from T24 cells, at 600 µg/ml or above [%]",Substance
70,50,100,100,–,His-tagged IL-1Ra wild type (without signal peptide) from E. coli (from UniProt P18510 26-177) (ligand)
> 70,–,–,–,100,commercial IL-1Ra WT (obtained from Prospec Tany TechnoGene Ltd (Rehovot Israel)) (from UniProt P18510 26-177) (ligand)
